First the molecules themselves.
B1: LINE1-mini (parent)
chain: GGCAGAGCUCAACACAGCGUGGCAAAGUGGCUGUGGCUAGACUGCC

The variants in the series derive from B1. The series can be described thus: self-cleavage, relative activity (ratio to wild type); higher = more cleavage; in vitro, sequencing; the parent is a self-cleaving ribozyme.
In the case of A12C A26G, the self-cleavage is 0.01. Turning to A12C A26C, the self-cleavage came to 0.02. With A12C A26U the figure was 0.03; with A12C A14U, 0.05; with A12C A14G, 0.04. In the case of A12C A14C it was 0.02; in that of A11U G27U, 0.13. On to A11U G27C, for which the self-cleavage was 0.14.

A11U G27A: the self-cleavage was determined as 0.16. With A11U U34C the figure was 0.05; with A11U U34G, 0.02. In the case of A11U U34A it was 0.04; in that of A11G A16U, 0.03; in that of A11G A16C, 0.02. In the case of A11G A16G, the self-cleavage came out at 0.02. In the case of A12C C18A it was 0.03; in that of A12C C18G, 0.02; in that of A12C C18U, 0.04. As for A11U U20A, the self-cleavage turned out to be 0.07. In the case of A11U U20C it was 0.07; in that of A11U U20G, 0.16; in that of A11G C42U, 0.01. Turning to A11G C42A, the self-cleavage was found to be 0.02. With A11G C42G, the self-cleavage turned out to be 0.01. For the variant A11C U32A, the self-cleavage is 0.04. In the case of A11C U32G it was 0.03; in that of A11C U32C, 0.04; in that of A11U C31A, 0.04.

Regarding A11U C31U, the self-cleavage was 0.1. In the case of A11U C31G it was 0.03; in that of A11G G30C, 0.04. As for A11G G30A, the self-cleavage was 0.04. A11G G30U: the self-cleavage turned out to be 0.04. Turning to A11G G36U, the self-cleavage is 0.02. A11G G36A: the self-cleavage came to 0.02. In the case of A11G G36C it was 0.01; in that of A11G A39G, 0.03.

Turning to A11G A39U, the self-cleavage is 0.05. With A11G A39C the figure was 0.04; with A11G G17A, 0.04; with A11G G17C, 0.04.

As to A11G G17U, the self-cleavage was found to be 0.03. In the case of A11C G36C it was 0.03; in that of A11C G36U, 0.01.

Consider A11C G36A, for which the self-cleavage is 0.04. For the variant A11G C15G, the self-cleavage was 0.03. In the case of A11G C15U it was 0.03.

As for A11G C15A, the self-cleavage was found to be 0.02. In the case of A12C C42U it was 0.01; in that of A12C C42G, 0.02; in that of A12C C42A, 0.03.

Turning to A11C U43C, the self-cleavage was found to be 0.02. With A11C U43A the figure was 0.01. Regarding A11C U43G, the self-cleavage stood at 0.03. In the case of A11G C37G it was 0.03; in that of A11G C37U, 0.05; in that of A11G C37A, 0.02. With A11G U34C the figure was 0.03; with A11G U34A, 0.03; with A11G U34G, 0.03. With A11G A24U, the self-cleavage stood at 0.02. A11G A24G: the self-cleavage was determined as 0.02. In the case of A11G A24C it was 0.03; in that of A11C U20C, 0.02; in that of A11C U20A, 0.02. In the case of A11C U20G it was 0.04. With A11G G40U the figure was 0.03.

Consider A11G G40A, for which the self-cleavage was 0.03. Take A11G G40C: the self-cleavage came to 0.02. For the variant A11U U38C, the self-cleavage worked out at 0.05. With A11U U38G the figure was 0.01; with A11U U38A, 0.07; with A12C G29A, 0.01. With A12C G29U the figure was 0.02; with A12C G29C, 0.01. In the case of A12C C37G it was 0.02. As to A12C C37A, the self-cleavage was found to be 0.02. Regarding A12C C37U, the self-cleavage came out at 0.02.

Regarding A11G G33U, the self-cleavage was found to be 0.03.

With A11G G33C, the self-cleavage stood at 0.03. Take A11G G33A: the self-cleavage worked out at 0.03. Turning to A12C G21U, the self-cleavage was 0.03. Regarding A12C G21A, the self-cleavage worked out at 0.02.

Take A12C G21C: the self-cleavage came to 0.03. With A12C G30A the figure was 0.03; with A12C G30U, 0.01; with A12C G30C, 0.04. With A11G U20G, the self-cleavage is 0.03.

Take A11G U20A: the self-cleavage came out at 0.04. With A11G U20C the figure was 0.03; with A12C G33U, 0.02; with A12C G33C, 0.01. A12C G33A: the self-cleavage came out at 0.05. With A11C G44U the figure was 0.03; with A11C G44A, 0.06. For A12C G27U, the self-cleavage amounted to 0.02. With A12C G27C the figure was 0.03; with A12C G27A, 0.03. With A12C A25C the figure was 0.03. In the case of A12C A25U it was 0.01; in that of A12C A25G, 0.02; in that of A11G C18G, 0.02. For the variant A11G C18A, the self-cleavage is 0.04.

Regarding A11G C18U, the self-cleavage came to 0.04. Turning to A11C G29C, the self-cleavage amounted to 0.05. With A11C G29U the figure was 0.07.

Consider A11C G29A, for which the self-cleavage amounted to 0.06. With A11G A41G, the self-cleavage is 0.02.

For the variant A11G A41U, the self-cleavage is 0.02. Turning to A11G A41C, the self-cleavage was found to be 0.03. Regarding A11G G21U, the self-cleavage is 0.03.

Regarding A11G G21A, the self-cleavage stood at 0.05. With A11G G21C the figure was 0.02. With A12C C23U the figure was 0.08; with A12C C23G, 0.02; with A12C C23A, 0.02. Regarding A11G A14G, the self-cleavage worked out at 0.02.

A11G A14U: the self-cleavage came out at 0.03. In the case of A11G A14C, the self-cleavage came out at 0.02. For the variant A11U G30A, the self-cleavage was found to be 0.17. For the variant A11U G30C, the self-cleavage is 0.13. In the case of A11U G30U, the self-cleavage is 0.18. Regarding A12C G35C, the self-cleavage is 0.03. With A12C G35A the figure was 0.04; with A12C G35U, 0.03; with A11U G22U, 0.15.

Turning to A11U G22C, the self-cleavage came out at 0.07. In the case of A11U G22A, the self-cleavage turned out to be 0.34. In the case of A11U G44U it was 0.05; in that of A11U G44A, 0.05; in that of A11U G44C, 0.03. With A12C A39G the figure was 0. In the case of A12C A39U it was 0.02. Consider A12C A39C, for which the self-cleavage amounted to 0.03.

In the case of A11U G21A, the self-cleavage is 0.33. In the case of A11U G21C it was 0.12. In the case of A11U G21U, the self-cleavage amounted to 0.1. With A11C U38G the figure was 0.02; with A11C U38A, 0.02; with A11C U38C, 0.04.

On to A11U G36C, for which the self-cleavage is 0.03.

In the case of A11U G36U, the self-cleavage worked out at 0.03. As to A11U G36A, the self-cleavage was found to be 0.02. With A11G G27C the figure was 0.03; with A11G G27A, 0.02. Consider A11G G27U, for which the self-cleavage amounted to 0.03. Turning to A11U C42U, the self-cleavage turned out to be 0.02. As to A11U C42A, the self-cleavage was 0.03.

With A11U C42G, the self-cleavage worked out at 0.02.

Regarding A11U U28G, the self-cleavage was 0.12. In the case of A11U U28C it was 0.22; in that of A11U U28A, 0.11; in that of A11U C18G, 0.04. Regarding A11U C18A, the self-cleavage worked out at 0.07.

On to A11U C18U, for which the self-cleavage was 0.32. In the case of A11U A16U it was 0.03; in that of A11U A16C, 0.02; in that of A11U A16G, 0.04. Consider A11G G35U, for which the self-cleavage amounted to 0.03. In the case of A11G G35C it was 0.02; in that of A11G G35A, 0.05. In the case of A12C G17A it was 0.01; in that of A12C G17U, 0.02. In the case of A12C G17C it was 0.02; in that of A11G U43A, 0.01; in that of A11G U43C, 0.02. Turning to A11G U43G, the self-cleavage turned out to be 0.

The values above are taken from the RNAGym collection of RNA variant scans (doi:10.7554/elife.90254).
